What was measured:
full length Itk = target: T1, full length Itk (Mus musculus, UniProt Q03526); assay: In vitro Itk kinase assay using Peptide B as the substrate (initial velocities); format: biochemical; conditions: full length Itk
T1 construct: made in house; host or cells: Sf9 insect cells (baculovirus), co-infected 1:1 with Lck baculovirus
T1 sequence (Q03526 1-625): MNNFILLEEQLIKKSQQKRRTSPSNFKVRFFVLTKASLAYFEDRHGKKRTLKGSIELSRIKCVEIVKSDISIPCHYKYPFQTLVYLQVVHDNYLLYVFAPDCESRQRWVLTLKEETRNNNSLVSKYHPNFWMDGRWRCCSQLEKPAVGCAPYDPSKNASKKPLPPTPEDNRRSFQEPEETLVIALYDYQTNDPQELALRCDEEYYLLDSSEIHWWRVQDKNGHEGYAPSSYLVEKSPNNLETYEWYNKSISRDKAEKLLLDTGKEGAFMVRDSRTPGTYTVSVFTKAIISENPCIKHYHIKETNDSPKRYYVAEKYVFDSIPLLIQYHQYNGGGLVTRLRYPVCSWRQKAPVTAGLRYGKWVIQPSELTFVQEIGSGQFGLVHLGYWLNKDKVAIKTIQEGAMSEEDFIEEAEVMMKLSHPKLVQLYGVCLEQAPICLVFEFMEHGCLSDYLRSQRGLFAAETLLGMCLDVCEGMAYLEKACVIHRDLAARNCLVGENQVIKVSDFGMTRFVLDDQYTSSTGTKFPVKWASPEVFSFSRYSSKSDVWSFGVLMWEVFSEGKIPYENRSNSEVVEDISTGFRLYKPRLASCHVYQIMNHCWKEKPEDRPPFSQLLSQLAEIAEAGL
Method: Substrate used in each experiment is indicated above each set of blots. 4(a) (left) Itk 32 substrate was incubated with Itk full-length enzyme as before (lane 1), or with Itk 32 domain:free Itk SH2 domain in ratios of 1:10, 1:25 or 1:50 (lanes 2-4, respectively) or equivalent ratios of PI3K N-terminal SH2 domain (lanes 5-7) and subjected to an in vitro kinase assay. […] Coomassie stain and an anti-FLAG blot (bottom panels) show protein levels. (right) The PLCγ1 SH2 domain competes with the PLCγ1 substrate in a similar manner. Lane 1 contains only Itk enzyme and PLCγ1 SH2C-Y783-substrate without additional free SH2 domain. Ratios of free SH2 domain to substrate are 1:5, 1:10 or 1:50 in lanes 2-4, respectively and equivalent ratios of PI3K SH2 domain are used in lanes 5-7. Coomassie stain of the gel and an anti-Itk blot (bottom panels) show protein levels. 4(b) Same experiment as shown in (a) using the Grb2 SH2 domain as a control. (left) Itk 32 substrate was incubated with Itk full-length enzyme (lane 1), or with Itk 32 domain:free Itk SH2 domain in ratios of 1:10 and 1:25 (lanes 2 & 3) or equivalent ratios of Grb2 SH2 domain (lanes 4 & 5) and subjected to an in vitro kinase assay. […]
The ratio of CypA to Itk varied between o and 100 times excess CypA. […] No change in Peptide B phosphorylation is detected. […]

Lck kinase domain = assay: Pull-down assay of Lck kinase domain with Itk SH2 domain; format: binding; conditions: anti-Myc immunoprecipitation, anti-His blot
Text: The Itk SH2 domains were immunoprecipitated using an anti-Myc antibody and the samples were western blotted with an anti-His antibody to detect the presence of the Lck kinase domain. Lanes 1 and 2 are beads alone control.
The samples were washed, boiled, resolved on an SDS-PAGE gel, transferred to PVDF membrane and western blotted with an anti-His antibody (clone HIS.H8 from Upstate). • (1) Wilcox, H. M., and Berg, L. J. (2003) Itk phosphorylation sites are required for functional activity in primary T cells. J Biol Chem 278, 37112-21. • (2) Hawkins, J., and Marcy, A. (2001) Characterization of Itk tyrosine kinase: contribution of noncatalytic domains to enzymatic activity. Protein Expr Purif 22, 211-9.

B1: Itk SH2 domain: isolated exogenous SH2 domain of Itk, purified from bacteria (protein)
chain: EWYNKSISRDKAEKLLLDTGKEGAFMVRDSRTPGTYTVSVFTKAIISENPCIKHYHIKETNDSPKRYYVAEKYVFDSIPLLIQYHQYNGGGLVTRLRYPVCSWRQKA
What does the source list for B1?
levels of peptide B phosphorylation (initial velocity) with increasing concentrations of SH2 domain (full length Itk): do not change significantly; interaction with Lck kinase domain (pull-down) (Lck kinase domain): direct interaction

Reference: patent publication US20090010911A1, “METHODS AND COMPOSITIONS FOR AFFECTING CYCLOPHILIN A REGULATION OF KINASES IN MODULATING CELLULAR ACTIVITIES” (IOWA STATE UNIVERSITY RESEARCH FOUNDATION, INC., priority 2007, published 2009)
